# Reference: PMC4258425
# B1: YodA (Bacillus subtilis subsp. subtilis str. 168) (protein)
# chain: PLLRFDVIEGRDEKSLQLLLDTAHQAMVEAFGVPERDRYQIVHQHPANELIIQDAGLGFQRTKDMVIISMTSKARTESQKEKLYALLAERLEKKCEISPDDLMVSITENGDADWSFGLGEAQFLNGKL
# B2: Bp4401 (Paraburkholderia phymatum STM815) (protein)
# chain: PLTRIALRAGKPAAYRQALTEGIQRALIAEFNVPEDDIFMVISEQDESNFVYNRNYLDIQRSDDFVLIQLTVTNSRTQEQKKALYKRIVDNLAEYPGVRREDVFINLVEVLKENWSFGNGIAQYAL
# Columns and labels:
# Details in all cases: 100 mM Na2HPO4 pH 8.0, 22 °C
# decarboxylase kinetics = substrate: O=CCC(=O)O; experiment: decarboxylase kinetics; format: biochemical, Bacillus subtilis
# hydratase kinetics [1] = substrate: CC#CC(=O)C(=O)O; experiment: hydratase kinetics; format: biochemical, Bacillus subtilis
# hydratase kinetics [2] = substrate: CC#CC(=O)C(=O)O; experiment: hydratase kinetics; format: biochemical, Paraburkholderia phymatum
Protein,Km (decarboxylase kinetics) [mM],kcat (decarboxylase kinetics) [s⁻¹],kcat/Km (decarboxylase kinetics) [M⁻¹ s⁻¹],Km (hydratase kinetics [1]) [mM],kcat (hydratase kinetics [1]) [s⁻¹],kcat/Km (hydratase kinetics [1]) [M⁻¹ s⁻¹],Km (hydratase kinetics [2]) [mM],kcat (hydratase kinetics [2]) [s⁻¹],kcat/Km (hydratase kinetics [2]) [M⁻¹ s⁻¹]
B1,6.8 ± 0.94,12.2 ± 1.1,1300,0.27 ± 0.04,0.03 ± 0.001,111,,,
B2,,,,,,,5 ± 0.35,14 ± 0.1,2800
